Here are results for 6 molecules from patent US20250084172A1 (23ANDME, published 2025).

The target in test [1] is hNKG2D-Fc (human NKG2D 78-216 with C-terminal long huFc-Flag tag) (human). The test can be described thus: SPR (BIACORE 8K, 37 C); hNKG2D-Fc captured on Protein A, soluble ligand injected. A general note: SPR reads the build-up and loss of mass on a sensor chip optically.
The target of test [2] is T1, human soluble ULBP6 haplotype 02 (hULBP6_02) (human, UniProt Q5VY80 26-218).
T1 construct: also called sULBP6_02
T1 chain: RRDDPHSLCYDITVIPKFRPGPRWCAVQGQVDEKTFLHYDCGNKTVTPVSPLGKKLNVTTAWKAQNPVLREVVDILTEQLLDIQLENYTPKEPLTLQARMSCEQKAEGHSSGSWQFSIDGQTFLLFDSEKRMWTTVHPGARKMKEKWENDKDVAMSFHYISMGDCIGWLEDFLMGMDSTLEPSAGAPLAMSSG
The test can be described thus: SPR (BIACORE).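 Also: soluble human and cynomolgus NKG2D ligands injected as analytes in 3-fold dilution series spanning 0.01 to 50 nM at 37 °C, reference-subtracted sensorgrams fitted to a 1:1 Langmuir model.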

The target of test [3] is T2, cynomolgus soluble ULBP2/6 (cULBP2/6) (cynomolgus, UniProt Q5VY80 28-217 (human entry), limits assumed).
T2 construct: also called cyno ULBP6; Cyno-cULBP2/6
T2 chain: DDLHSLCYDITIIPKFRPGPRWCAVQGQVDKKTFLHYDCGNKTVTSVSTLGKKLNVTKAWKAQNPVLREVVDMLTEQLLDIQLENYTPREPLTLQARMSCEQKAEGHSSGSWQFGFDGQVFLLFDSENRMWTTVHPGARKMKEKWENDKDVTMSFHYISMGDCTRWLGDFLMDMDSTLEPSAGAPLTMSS
The test can be described thus: SPR (BIACORE).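 Also: soluble human and cynomolgus NKG2D ligands injected as analytes in 3-fold dilution series spanning 0.01 to 50 nM at 37 °C, reference-subtracted sensorgrams fitted to a 1:1 Langmuir model.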

In test [4] the target is T3, cynomolgus soluble ULBP5 (cULBP5) (cynomolgus).
T3 construct: also called Cyno-cULBP5
T3 chain: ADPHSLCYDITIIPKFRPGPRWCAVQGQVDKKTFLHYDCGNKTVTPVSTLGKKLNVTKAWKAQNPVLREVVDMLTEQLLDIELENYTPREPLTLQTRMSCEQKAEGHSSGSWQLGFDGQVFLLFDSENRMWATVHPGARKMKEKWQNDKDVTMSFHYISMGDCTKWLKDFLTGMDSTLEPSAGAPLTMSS
The test can be described thus: SPR (BIACORE).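 Also: soluble human and cynomolgus NKG2D ligands injected as analytes in 3-fold dilution series spanning 0.01 to 50 nM at 37 °C, reference-subtracted sensorgrams fitted to a 1:1 Langmuir model.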

Test [5] has as its target T4, human soluble ULBP6 haplotype 01 (hULBP6_01) (human, UniProt Q5VY80 27-218, limits assumed).
T4 construct: also called sULBP6_01
T4 chain: T1 chain with R1G, L81R, T122I
The test can be described thus: SPR (BIACORE).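 Also: soluble human and cynomolgus NKG2D ligands injected as analytes in 3-fold dilution series spanning 0.01 to 50 nM at 37 °C, reference-subtracted sensorgrams fitted to a 1:1 Langmuir model.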

The target of test [6] is T5, human soluble ULBP5 (hULBP5) (human, UniProt Q6H3X3 26-218).
T5 construct: also called sULBP5
T5 sequence: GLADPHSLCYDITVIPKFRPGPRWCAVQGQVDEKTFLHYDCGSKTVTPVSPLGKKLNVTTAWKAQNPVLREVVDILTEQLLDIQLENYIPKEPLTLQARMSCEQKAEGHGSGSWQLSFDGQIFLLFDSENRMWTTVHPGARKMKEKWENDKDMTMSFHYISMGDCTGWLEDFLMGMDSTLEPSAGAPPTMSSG
The test can be described thus: SPR (BIACORE).

For test [7], the target named is T6, human soluble ULBP2 (hULBP2) (human, UniProt Q9BZM5 26-216).
T6 construct: also called sULBP2
T6 sequence: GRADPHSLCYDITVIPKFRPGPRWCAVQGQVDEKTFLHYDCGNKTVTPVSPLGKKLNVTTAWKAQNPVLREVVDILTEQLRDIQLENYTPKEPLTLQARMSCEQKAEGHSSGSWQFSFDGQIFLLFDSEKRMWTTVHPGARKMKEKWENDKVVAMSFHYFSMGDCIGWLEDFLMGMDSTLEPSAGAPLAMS
The test can be described thus: SPR (BIACORE).

Test [8] concerns the target T4, human soluble ULBP6 haplotype 01 …. The test can be described thus: blocking ELISA; hNKG2D coated, antibody titrated with biotinylated hULBP6_01.
Test [9] addresses T1, human soluble ULBP6 haplotype 02 …. The test can be described thus: blocking ELISA; hNKG2D coated, antibody titrated with biotinylated hULBP6_02.
The target is the same in test [10]. The test can be described thus: SPR (BIACORE 8K, 37 C); antibody captured on Protein A, soluble ULBP injected.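 Also: ligand injected as threefold dilution series in HBS-P (highest 10 or 50 nM), reference-cell and buffer-subtracted sensorgrams fitted with a 1:1 Langmuir model for on and off rates.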
For test [11], the target named is T2, cynomolgus soluble ULBP2/6 (cULBP2/6). The test is described as above.
Test [12] has as its target T3, cynomolgus soluble ULBP5 (cULBP5). Described as above.
The target of test [13] is T4, human soluble ULBP6 haplotype 01 …. Described as above.
In test [14] the target is T6, human soluble ULBP2 (hULBP2). The test is described as above.
Test [15] deals with T7, cell surface ULBP6_01 on COV644 cells (human, UniProt Q5VY80 27-218).
T7 construct: whole, on cells; also called cell surface ULBP6 (COV644)
T7 chain: T1 chain with R1G, L81R, T122I
The test can be described thus: flow cytometry on COV644 cells, anti-hFc-APC detection, average of 2 replicates.

In test [16] the target is T8, cell surface ULBP6_02 on PANC02.13 cells (human, UniProt Q5VY80 26-218).
T8 construct: whole, on cells; also called cell surface ULBP6 (PANC02.13)
T8 chain: T1 chain
The test can be described thus: flow cytometry on PANC02.13 cells, anti-hFc-APC detection, average of 2 replicates. For orientation: A flow cytometer gives signals particle by particle.

Test [17] addresses T7, cell surface ULBP6_01 on COV644 cells. The test can be described thus: flow cytometry; blocking of hNKG2D-mFc binding to COV644 cells, average of 2 replicates.
Test [18] has as its target T9, human ULBP6 displayed on M13 phage (ULBP6-HA-pIII) (human, UniProt Q5VY80 26-218).
T9 construct: also called ULBP6 phage; not shown: M13 minor coat protein pIII
T9 sequence: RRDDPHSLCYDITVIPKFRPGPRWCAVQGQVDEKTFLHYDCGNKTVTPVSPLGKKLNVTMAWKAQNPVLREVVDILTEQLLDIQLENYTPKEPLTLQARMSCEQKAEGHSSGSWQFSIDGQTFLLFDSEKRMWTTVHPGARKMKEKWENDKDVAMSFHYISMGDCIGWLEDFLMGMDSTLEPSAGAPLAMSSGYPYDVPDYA
The test can be described thus: phage ELISA: plate coated with the antibody, ULBP6 phage titrated in 3-fold steps from 1.0 O.D./mL, HRP anti-M13 detection, O.D. 450. For orientation: An ELISA detects its analyte on a solid surface through an enzyme-linked reagent.

Where a chain is given by its changes, count along the chain named. Names and notes keep the numbering of the source.

Chain of hNKG2D-Fc (human NKG2D 78-216 with C-terminal long huFc-Flag tag) (human) (chain, as listed by the source limits assumed): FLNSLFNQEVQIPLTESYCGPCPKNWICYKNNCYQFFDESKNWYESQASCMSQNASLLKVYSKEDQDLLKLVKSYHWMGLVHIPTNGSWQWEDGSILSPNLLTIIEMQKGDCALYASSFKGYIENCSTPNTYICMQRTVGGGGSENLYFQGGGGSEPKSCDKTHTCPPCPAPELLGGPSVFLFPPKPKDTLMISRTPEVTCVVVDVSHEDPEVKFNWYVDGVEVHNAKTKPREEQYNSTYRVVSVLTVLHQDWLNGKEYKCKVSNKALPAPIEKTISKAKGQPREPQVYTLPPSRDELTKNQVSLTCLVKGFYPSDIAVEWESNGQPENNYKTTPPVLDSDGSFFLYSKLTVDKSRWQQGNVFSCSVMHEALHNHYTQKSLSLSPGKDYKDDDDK

B1: human soluble MICB (hMICB) (ligand)
chain: AEPHSLRYNLMVLSQDESVQSGFLAEGHLDGQPFLRYDRQKRRAKPQGQWAEDVLGAKTWDTETEDLTENGQDLRRTLTHIKDQKGGLHSLQEIRVCEIHEDSSTRGSRHFYYDGELFLSQNLETQESTVPQSSRAQTLAMNVTNFWKEDAMKTKTHYRAMQADCLQKLQRYLKSGVAIRRTVPPMVNVTCSEVSEGNITVTCRASSFYPRNITLTWRQDGVSLSHNTQQWGDVLPDGNGTYQTWVATRIRQGEEQRFTCYMEHSGNHGTHPVPSGKVLVLQSQRTD
notes: the printed Uniprot number (29983) looks wrong; also called sMICB
As a reminder, the Kd is a measure of binding affinity in units of concentration. Read a high Kd as lower affinity. Regarding B1, binding in test [1] was put at a Kd of 118 nM.

B2: Humanized 6E1 (h6E1) (E-) (antibody, human IgG1, kappa, N297G, V domains shown)
VH: EVQLVQSGAEVKKPGASVKVSCKASGYTFTNYWMHWMRQAPGQGLEWLGRIHPSDSDTNYNQKFKGRATLTVDKSISTAYMELSRLRSDDTAVYYCAIEGTGKGYFDVWGRGTLVTVSS
VL: DIQMTQSPSSLSASVGDRVTITCKASQDIYSYLSWFQQKPGKSPKTLIYRANRLVDGVPSRFSGSGSGQDFTLTISSLQPEDFATYYCLHYDEFPLTFGGGTKVEIKR
notes: hIgG1 with N297G (effector negative)
The IC50 is the midpoint of a concentration-inhibition curve. A lower IC50 goes with greater potency. B2: the Kd in test [2] was 0.68 nM; in test [3], 1.76 nM; in test [4], 1.03 nM; in test [5] it was 4.38 nM; in test [6], 8.7 nM; in test [7], 8.91 nM. In addition, the IC50 is 10.2 nM in [8] and 0.103 nM in test [9].

B3: humanized 1D4 (h1D4), Fc version not stated (antibody, V domains shown)
VH: EIQLVQSGSELKKPGASVKVSCKASGYTFTEYPIHWVRQAPGQGFEWMGMIYTDTGEPTHAEEFKGRFVFSLDTSVSTAYLQISSLKAEDTAVYFCVRWYDGSSYIMDYWGQGTTVTVSS
VL: DIQMTQSPSSLSASVGDRVTITCKASQDINSYLSWFQQKPGKSPKTLIYRANRLVDGVPSRFSGSGSGQDYTFTISSLQPEDIATYYCLQYDEFPLTFGGGTKVEIK
notes: Recombinant humanized antibody, hIgG1 backbone with kappa light chain; also called hiD4; hu1D4
As a reminder, the koff is the rate constant with which the complex falls apart. Read a low koff as slow dissociation. As usually defined, the kon is a measure of how fast the partners come together. Usually EC50 stands for the concentration at which the effect is half-maximal. A high value points to lower potency in that assay. On to B3, for which the Kd in test [10] worked out at 1.31 nM; in test [11], 0.151 nM; in [12], 0.735 nM; in test [13], 0.422 nM; in test [14], 0.642 nM. The koff in test [10] was found to be 0.00215 s⁻¹; in test [11], 0.00133 s⁻¹; in test [12], 0.00105 s⁻¹; in test [13], 0.00114 s⁻¹; in test [14], 0.00148 s⁻¹. The kon amounted to 1.64e+06 M⁻¹ s⁻¹ in [10]; 8.84e+06 M⁻¹ s⁻¹ in [11]; 1.43e+06 M⁻¹ s⁻¹ in test [12]; 2.69e+06 M⁻¹ s⁻¹ in test [13]; 2.31e+06 M⁻¹ s⁻¹ in test [14]. Besides, the EC50 in test [15] is 1.4 nM; in test [16], 0.72 nM. The molecule also displayed an IC50 in test [17] of 0.22 nM. Moreover, the “EC50 (read off the curve)” value in test [18] was ~0.006 O.D. (phage).

B4: humanized 6E1 (h6E1), Fc version not stated (antibody, V domains shown)
VH: B2 VH
VL: B3 VL with N30Y, Y71F, F73L, I83F, Q90H
notes: Recombinant humanized antibody, hIgG1 backbone with kappa light chain; also called hu6E1; PUR3993
Consider B4, for which the Kd came to 0.939 nM in test [10]; 0.415 nM in test [11]; 1.51 nM in [12]; 5.24 nM in test [13]; 10.7 nM in test [14]. In addition, the koff is 0.00664 s⁻¹ in [10]; 0.0115 s⁻¹ in test [11]; 0.00922 s⁻¹ in test [12]; 0.0246 s⁻¹ in [13]; 0.0386 s⁻¹ in test [14]. In addition, the on-rate (kon) was 7.07e+06 M⁻¹ s⁻¹ in [10]; 2.77e+07 M⁻¹ s⁻¹ in [11]; 6.1e+06 M⁻¹ s⁻¹ in test [12]; 4.7e+06 M⁻¹ s⁻¹ in test [13]; 3.62e+06 M⁻¹ s⁻¹ in [14]. The EC50 in test [15] is 0.36 nM; in test [16], 0.44 nM. Also, the IC50 in test [17] amounted to 0.2 nM. Further, in [18], the “EC50 (read off the curve)” value is ~0.006 O.D. (phage).

B5: Humanized 1D4 (h1D4) (E-) (antibody, human IgG1, kappa, N297G, V domains shown)
VH: B3 VH
VL: B2 VL with Y30N, F71Y, L73F, F83I, H90Q
notes: as for B2
For B5, the Kd in test [2] was 1.06 nM; in test [3], 0.99 nM; in test [4], 0.63 nM; in test [5] it was 0.41 nM; in [6], 8.88 nM; in test [7] it was 0.47 nM. The figures for the IC50 in test [8] and in test [9] were 7.7 nM and 0.265 nM, respectively.

B6: humanized 8E11 (h8E11), Fc version not stated (antibody, V domains shown)
VH: EVQLVESGGGLVQPGGSLRLSCAASGFTFRTYGMHWVRQAPGKGLEWVAYISSGSGTIDYADTVKGRFTISRDNAKNSLYLQMNSLRAEDTAVYYCTRQTGAMDYWGQGTLVTVSS
VL: EIVLTQSPATLSLSPGERATLSCSASSSVSYMNWYQQKPGQSPRLWIYGISNLASGVPARFSGSGSGTDFTLTISSLEPEDFAVYYCQQRSSHPLTFGGGTKVEIK
notes: Recombinant humanized antibody, hIgG1 backbone with kappa light chain; also called PUR3926
As for B6, the dissociation constant (Kd) in test [10] was 0.383 nM; in [11], 11.4 nM; in test [12], 23.9 nM; in test [13], 0.331 nM; in [14] it was 0.662 nM. The koff in [10] came to 0.000459 s⁻¹; in test [11], 0.0045 s⁻¹; in [12] it was 0.00333 s⁻¹; in test [13], 0.000492 s⁻¹; in test [14] it was 0.000542 s⁻¹. In addition, the kon was found to be 1.2e+06 M⁻¹ s⁻¹ in test [10]; 396000 M⁻¹ s⁻¹ in test [11]; 139000 M⁻¹ s⁻¹ in test [12]; 1.48e+06 M⁻¹ s⁻¹ in test [13]; 819000 M⁻¹ s⁻¹ in test [14]. In addition, the EC50 in test [15] was 1.29 nM; in [16] it was 1.28 nM. Further, the IC50 in test [17] stood at 0.11 nM. Also, in test [18], the “EC50 (read off the curve)” value is ~0.006 O.D. (phage).
